EC50, Kd and stoichiometry N data for 2 molecules are collected here from article PMC3071809, “Recombinant Complement Receptor 2 Radiolabeled with [^99mTc(CO)3]^+ : A Potential New Radiopharmaceutical for Imaging Activated Complement” (PLoS ONE, 2011).

For assay [1], the target named is T1, human C3d protein (Merck) (human, UniProt P01024 1002-1303).
T1 construct: C3d fragment of complement C3, human; also called C3d antigen; immobilized C3d; source: bought: Merck, Darmstadt, Germany
The assay can be described thus: ELISA; C3d coated at two fold concentrations from 1.5 to 1500 nM/well in PBS pH 7.4; rCR2 or C2A at a fixed 1.5 µM in 0.05% BSA-PBS pH 7.4, 1 h, room temperature; detected with anti-His antibody. Conditions: both partners purified. (In an ELISA, binding on a coated surface is turned into a signal by an enzyme label.)

Assay [2] concerns the target C3d construct with a free exposed thiol (Cys17, corresponding to Cys1010 of full length C3) (human). The assay can be described thus: SPR; Biacore T100, 25°C; C3d immobilised on a CM5 chip by thiol coupling of the free Cys17; rCR2 as analyte; 0.01 M HEPES pH 7.4, 0.15 M NaCl, 3 mM EDTA, 0.005% Tween 20; equilibrium analysis, Langmuir isotherm. On the technique in general: Surface plasmon resonance follows binding to a sensor surface in real time, without labels.

The target in assay [3] is T1, human C3d protein (Merck). The assay can be described thus: radioligand binding; radioactive ELISA: C3d coated on 12 well strips at increasing two fold concentrations, ^99mTc-rCR2 added, wells gamma counted; one site specific binding model Y = Bmax*X/(Kd+X). Conditions: both partners purified.

A word on the EC50: it is the midpoint of the concentration-response curve. A low value points to greater potency. One may read the Kd as a measure of binding affinity in units of concentration. In general, stoichiometry N refers to the number of molecules, sites or subunits per partner or assembly.

T1 sequence (P01024 1002-1303): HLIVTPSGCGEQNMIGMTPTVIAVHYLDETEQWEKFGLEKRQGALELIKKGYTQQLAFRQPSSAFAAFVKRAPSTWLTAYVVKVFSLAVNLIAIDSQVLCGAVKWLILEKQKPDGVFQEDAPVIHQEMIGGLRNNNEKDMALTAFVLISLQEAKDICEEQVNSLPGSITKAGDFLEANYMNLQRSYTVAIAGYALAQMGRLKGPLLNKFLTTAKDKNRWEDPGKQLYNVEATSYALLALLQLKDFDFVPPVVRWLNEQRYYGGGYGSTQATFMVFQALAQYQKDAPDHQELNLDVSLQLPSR

B1: recombinant Complement Receptor 2 (rCR2), Short Consensus Repeats 1 and 2 of human CR2 with the C-terminal sequence … (domain or fragment, UniProt P20023 21-154, looked up)
chain: ISCGSPPPILNGRISYYSTPIAVGTVIRYSCSGTFRLIGEKSLLCITKDKVDGTWDKPAPKCEYFNKYSSCPEPIVPGGYKIRGSTPYRHGDSVTFACKTNFSMNGNKSVWCQANNMWGPTRLPTCVSVFPLEC
notes: complement receptor type 2 (CR2, CD21), human, residues 21-154: SCR1, SCR2 and the SCR2 to SCR3 linker VFPLEC; 15.5 kDa; cloned in pET-24a (NdeI/EcoRI); also called recombinant CR2; SCR1/2 fragment; not shown: His6, C-terminal, kept
For the molecule B1, in assay [1], the EC50 is about 48.5 nM. In assay [2], this molecule yielded a Kd of 570 nM and a stoichiometry N of 1.

B2: ^99mTc-rCR2 (rCR2 radiolabeled with [^99mTc(CO)3]^+ on the His-tag) (domain or fragment, human, UniProt P20023 21-154, looked up)
chain: B1 chain
modifications: [^99mTc(CO)3]^+ on the C-terminal His-tag
notes: complement receptor type 2 (CR2), human, residues 21-154, as m1; m1 with the radiolabel; also called rCR2-Tc^99m; rCR2-[^99mTc(CO)3]; source: labeled with [^99mTc(CO)3(OH2)3]^+ at 37°C; not shown: His6, C-terminal, kept
On to B2, for which the Kd in assay [3] was 25.5 nM.
